These results are taken from PMC2212946.

This assay deals with Fc fragment of IgE (domains Cε2-4) (human). The experiment in a line: SPR.
Fc fragment of IgE (domains Cε2-4) (human), sequence (P01854 whole entry, the tested form may be a part): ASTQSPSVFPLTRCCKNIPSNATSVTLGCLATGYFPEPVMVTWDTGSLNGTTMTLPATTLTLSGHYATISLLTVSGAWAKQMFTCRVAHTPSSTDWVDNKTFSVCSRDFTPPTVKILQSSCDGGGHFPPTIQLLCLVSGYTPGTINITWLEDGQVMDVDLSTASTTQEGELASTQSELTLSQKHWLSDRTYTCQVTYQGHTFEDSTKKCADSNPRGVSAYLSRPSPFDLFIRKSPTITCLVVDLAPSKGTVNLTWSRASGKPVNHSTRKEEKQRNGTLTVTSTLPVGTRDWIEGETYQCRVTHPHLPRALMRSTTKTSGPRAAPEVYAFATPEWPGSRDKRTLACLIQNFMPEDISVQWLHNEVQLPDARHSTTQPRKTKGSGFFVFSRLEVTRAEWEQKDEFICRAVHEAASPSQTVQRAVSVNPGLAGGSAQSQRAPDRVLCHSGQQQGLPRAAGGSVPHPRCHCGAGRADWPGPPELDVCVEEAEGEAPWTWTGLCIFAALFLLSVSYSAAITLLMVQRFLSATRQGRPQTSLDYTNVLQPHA

B1: derCD23, recombinant version of the Der p I fragment of human CD23 (FcεRII), C-type lectin domain (domain or fragment)
chain: SGFVCNTCPEKWINFQRKCYYFGKGTKQWVHARYACDDMEGQLVSIHSPEEQDFLTKHASHTGSWIGLRNLDLKGEFIWVDGSHVDYSNWAPGEPTSRSQGEDCVMMRGSGRWNDAFCDRKLGAWVCDRLATCTPPASEGSAE
The molecule B1 registered a Kd of 1.3 µM. In other words, the single-digit micromolar range.

B2: exCD23, recombinant soluble CD23 fragment containing the entire extracellular sequence (domain or fragment)
chain: DTTQSLKQLEERAARNVSQVSKNLESHHGDQMAQKSQSTQISQELEELRAEQQRLKSQDLELSWNLNGLQADLSSFKSQELNERNEASDLLERLREEVTKLRMELQVSSGFVCNTCPEKWINFQRKCYYFGKGTKQWVHARYACDDMEGQLVSIHSPEEQDFLTKHASHTGSWIGLRNLDLKGEFIWVDGSHVDYSNWAPGEPTSRSQGEDCVMMRGSGRWNDAFCDRKLGAWVCDRLATCTPPASEGSAESMGPDSRPDPDGRLPTPSAPLHS
For the molecule B2, the KD, first of two components amounted to 1.1 µM; the KD, second of two components worked out at 0.039 µM; the koff, major component was found to be 0.0005 s⁻¹; the koff, minor component turned out to be 0.04 s⁻¹.
